These results are taken from patent US20250320281A1.

Among the targets are HIV-1 APV13 Env (HIV-1); aMLV envelope (aMLV); HIV-1 CMU02 Env (HIV-1).
Common to all, as to experiment: cell-based or functional assay
The target in test [1] is HIV-1 JR-FL Env E168K (HIV-1 JR-FL).
The target in test [2] is HIV-1 Env of isolate CAAN (clade B pseudovirus) (HIV-1).
Test [3] deals with HIV-1 Env of isolate DU422 (clade C pseudovirus) (HIV-1).
Test [4] deals with MuLV envelope protein (control pseudovirus) (MuLV).
For test [5], the target named is HIV-1 MGRM-C-026 envelope glycoprotein (Env) on pseudovirus (HIV-1 isolate MGRM-C-026 (clade C)).
Test [6] concerns the target HIV-1 JRCSF envelope glycoprotein (Env) on pseudovirus (HIV-1 isolate JRCSF (clade B)) (UniProt P20871).
The target of test [7] is HIV-1 MGRM-C-028 envelope glycoprotein (Env) on pseudovirus (HIV-1 isolate MGRM-C-028 (clade C)).
In test [8] the target is HIV-1 MGRM-A-010 envelope glycoprotein (Env) on pseudovirus (HIV-1 isolate MGRM-A-010 (clade A)).
Test [9] deals with HIV-1 94UG103 Env (HIV-1).
The target of test [10] is HIV-1 92BR020 Env (HIV-1).
Test [11] deals with HIV-1 93IN905 Env (HIV-1).
Test [12] has as its target HIV-1 MGRM-A-010 Env (HIV-1).
Test [13] deals with HIV-1 MGRM-C-028 Env (HIV-1).
The target of test [14] is HIV-1 92TH021 Env (pseudovirus) (HIV-1 isolate 92TH021 (clade AE)).
Test [15] has as its target HIV-1 93UG077 Env (pseudovirus) (HIV-1 isolate 93UG077 (clade A)).
Test [16] has as its target HIV-1 94UG103 Env (pseudovirus) (HIV-1 isolate 94UG103 (clade A)).
Test [17] has as its target aMLV envelope (control pseudovirus) (aMLV).
Test [18] deals with HIV-1 92UG005 Env (pseudovirus) (HIV-1 isolate 92UG005 (clade D)).
Test [19] has as its target HIV-1 APV17 Env (pseudovirus) (HIV-1 isolate APV17 (clade B)).
The target of test [20] is HIV-1 Env of isolate JRFL (HIV-1).
The target in test [21] is HIV-1 Env of isolate MGRM-Chronic-B-020 (HIV-1).
In test [22] the target is HIV-1 Env of isolate MGRM-F1-021 (clade F pseudovirus) (HIV-1).
Test [23] has as its target HIV-1 Env of isolate MG RM-D-021 (clade D), on pseudovirus (HIV-1).
For test [24], the target named is HIV-1 Env of isolate MG RM-D-022 (clade D), on pseudovirus (HIV-1).
In test [25] the target is HIV-1 Env of pseudovirus MGRM-A-004 (subtype A) (HIV-1).
Test [26] concerns the target HIV-1 Env of pseudovirus MGRM-AG-005 (subtype AG) (HIV-1).
The target in test [27] is HIV-1 Env of pseudovirus MGRM-AG-011 (subtype AG) (HIV-1).
In test [28] the target is HIV-1 Env of pseudovirus MGRM-AG-006 (subtype AG) (HIV-1).
The target of test [29] is HIV-1 Env of pseudovirus MGRM-AG-013 (subtype AG) (HIV-1).
In test [30] the target is HIV-1 Env of pseudovirus MGRM-AE-008 (subtype AE) (HIV-1).
Test [31] concerns the target HIV-1 Env of isolate MGRM-F1-010 (HIV-1).

1443_C16 (PG16) (TCN-116) (antibody), sequence (VH): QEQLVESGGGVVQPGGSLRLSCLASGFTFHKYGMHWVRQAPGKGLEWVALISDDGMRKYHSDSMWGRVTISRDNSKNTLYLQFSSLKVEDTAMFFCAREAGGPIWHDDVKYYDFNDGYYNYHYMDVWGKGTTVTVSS
1443_C16 (PG16) (TCN-116) (antibody), sequence (VL): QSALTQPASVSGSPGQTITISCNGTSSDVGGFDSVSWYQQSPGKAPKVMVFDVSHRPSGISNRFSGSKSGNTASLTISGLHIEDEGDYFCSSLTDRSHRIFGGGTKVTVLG

As for 1443_C16 (PG16) (TCN-116) (antibody), the IC50 (ug/ml), pseudovirus neutralization, TZM-bl assay in test [1] worked out at 0.006 µg/mL. Moreover, the IC50 (neutralization, TZM-bl pseudovirus assay) in test [2] was 6.37 µg/mL; in [3] it was 0.59 µg/mL; in [4] it was greater than 25 µg/mL.

1496_C09 (PG9) (TCN-109) (antibody) gave a neutralization IC50 in test [5] of 0.113 µg/mL. In test [6], this substance yielded a neutralization IC50 of 0.0048 µg/mL, a neutralization IC80 of 0.0181 µg/mL, a neutralization IC90 of 0.0391 µg/mL and a neutralization IC95 of 0.0798 µg/mL. Also, in test [7], the neutralization IC50 was 0.121 µg/mL, the neutralization IC80 was determined as 0.645 µg/mL, the neutralization IC90 was found to be 1.65 µg/mL and the neutralization IC95 was 3.71 µg/mL. In addition, in [8], the neutralization IC50 was 0.0375 µg/mL, the neutralization IC80 was determined as 0.121 µg/mL, the neutralization IC90 came out at 0.242 µg/mL and the neutralization IC95 stood at 0.456 µg/mL.

Consider 4877_D15 (PGT-122) (antibody), for which the Neutralization by PGT-122, IC50 is 1.46 µg/mL in [9]; 0.0337 µg/mL in test [10]; 0.992 µg/mL with HIV-1 APV13 Env (HIV-1); greater than 10 µg/mL with aMLV envelope (aMLV); 0.0138 µg/mL in test [11]; 1.68 µg/mL in test [12]. For the same substance, the Neutralization by PGT-122, IC50 was 2.06 µg/mL in [13] and greater than 10 µg/mL with HIV-1 CMU02 Env (HIV-1). Further, the Neutralization by PGT-122, IC80 was 6.58 µg/mL in [9]; 0.0929 µg/mL in test [10]; 4.14 µg/mL with HIV-1 APV13 Env (HIV-1); greater than 10 µg/mL with aMLV envelope (aMLV); 0.0505 µg/mL in test [11]; greater than 10 µg/mL in test [12]. The Neutralization by PGT-122, IC80 (in test [13]; with HIV-1 CMU02 Env (HIV-1)) was greater than 10 µg/mL each time. The Neutralization by PGT-122, IC90 in [9] was greater than 10 µg/mL; in [10], 0.168 µg/mL; with HIV-1 APV13 Env (HIV-1), 8.6 µg/mL; in the test with aMLV envelope (aMLV) it was greater than 10 µg/mL; in test [11] it was 0.108 µg/mL; in [12], greater than 10 µg/mL. Also, the Neutralization by PGT-122, IC90 (in test [13]; in the test with HIV-1 CMU02 Env (HIV-1)) was greater than 10 µg/mL each time. Further, the Neutralization by PGT-122, IC95 in [9] was greater than 10 µg/mL; in [10], 0.289 µg/mL; with HIV-1 APV13 Env (HIV-1) it was greater than 10 µg/mL; with aMLV envelope (aMLV), greater than 10 µg/mL; in test [11], 0.217 µg/mL; in test [12] it was greater than 10 µg/mL. Moreover, the Neutralization by PGT-122, IC95 (in test [13]; with HIV-1 CMU02 Env (HIV-1)) was greater than 10 µg/mL in each case.

In the case of 5123_A06 (PGT-125) (antibody), the Neutralization by PGT-125, IC50 was 0.0066 µg/mL in test [14]; 0.0262 µg/mL in test [15]; 0.0124 µg/mL in test [16]; greater than 10 µg/mL in [17]; greater than 10 µg/mL in test [18]; 7.31 µg/mL in test [19]. In addition, the Neutralization by PGT-125, IC80 is 0.0292 µg/mL in test [14]; 0.0926 µg/mL in [15]; 0.0373 µg/mL in [16]; greater than 10 µg/mL in test [17]; greater than 10 µg/mL in test [18]; greater than 10 µg/mL in test [19]. Moreover, the Neutralization by PGT-125, IC90 in test [14] is 0.0701 µg/mL; in test [15], 0.206 µg/mL; in test [16] it was 0.071 µg/mL; in test [17], greater than 10 µg/mL; in test [18], greater than 10 µg/mL; in test [19], greater than 10 µg/mL. In addition, the Neutralization by PGT-125, IC95 in test [14] was 0.157 µg/mL; in [15], 0.487 µg/mL; in test [16], 0.129 µg/mL; in [17], greater than 10 µg/mL; in [18] it was greater than 10 µg/mL; in test [19], greater than 10 µg/mL.

On to PGV04 (antibody), for which the IC50 (µg/mL), pseudovirus neutralization in test [20] is 0.032 µg/mL; in test [21], 1.26 µg/mL; in test [22] it was 0.031 µg/mL; in [23] it was greater than 50 µg/mL; in [24], greater than 50 µg/mL. The substance also displayed an IC50, pseudovirus neutralization in test [25] of 0.175 µg/mL.

By IC50 is commonly meant the midpoint of a concentration-inhibition curve. Higher therefore signals weaker potency. On to VRC01 (antibody), for which the IC50, pseudovirus neutralization in test [26] was found to be 0.091 µg/mL; in test [27], 0.084 µg/mL; in test [28], 0.344 µg/mL; in test [29], 0.197 µg/mL; in test [30], 1.72 µg/mL. The concentration for half-maximal inhibition (IC50) in test [31] was 0.097 µg/mL.
